# Experimental data taken from paper doi:10.1101/219642 (bioRxiv, 2017).
# Columns and labels:
# [1] = biological target: ubiquitin on ubiquitin-coated agarose beads (UniProt P0CG47 1-76, coupled to agarose beads); experiment: pull-down
# [2] = biological target: Purified bovine ubiquitin (bovine, UniProt P0CG53 1-76); experiment: SPR
Binder,binding result [1],Kd [2] [mM]
GST fusion protein of the constitutively open mutant of the cytoplasmic region of Stx3 (L165A/E166A) (domain or fragment) MKDRLEQLKAKQLTQDDDTDEVEIAIDNTAFMDEFFSEIEETRLNIDKISEHVEEAKKLYSIILSAPIPEPKTKDDLEQLTTEIKKRANNVRNKLKSMEKHIEEDEVRSSADLRIRKSQHSVLSRKFVEVMTKYNEAQVDFRERSKGRIQRQLEITGKKTTDEEAAEMLESGNPAIFTSGIIDSQISKQALSEIEGRHKDIVRLESSIKELHDMFMDIAMLVENQGEMLDNIELNVMHTVDHVEKARDETKRAMKYQGQARKKLI,binds,
GST fusion protein containing only the Habc domain (1-146) of Stx3 (domain or fragment) MKDRLEQLKAKQLTQDDDTDEVEIAIDNTAFMDEFFSEIEETRLNIDKISEHVEEAKKLYSIILSAPIPEPKTKDDLEQLTTEIKKRANNVRNKLKSMEKHIEEDEVRSSADLRIRKSQHSVLSRKFVEVMTKYNEAQVDFRERSK,binds,1.36
